According to the supplement of paper PMC12042874:
± gives the uncertainty stated by the source.

assay: amyloid nucleation score (Sup35N fusion, yeast selection) (log enrichment); library NNK3; higher = more nucleation; inactive = no reads after selection
In short: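 Three technical output replicates were used for random libraries. Psi-negative yeast expressing peptides of 20 random codons fused to Sup35N were induced with 100 μM copper sulfate for 24 hours and grown 7 days at 30°C on medium lacking adenine and uracil, and input and output plasmid inserts were Illumina-sequenced, excluding sequences with under 100 input reads. The nucleation score is the DiMSum log enrichment of output over input reads, centred on the mode score of non-aggregating sequences.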

**Q.** With VYDMCGNLQWAL as the substance, how does the amyloid nucleation score read?
**A.** inactive

**Q.** For VYEGFQVWNDGLPDLVRFGV, which amyloid nucleation score is on record?
**A.** inactive

**Q.** Which amyloid nucleation score does the source give for VYIRSFRSCTWRSLPMRIRY here?
**A.** inactive

**Q.** With VYKIMVTFPSISMPSRSSGL as the substance, how does the amyloid nucleation score read?
**A.** inactive

**Q.** Which amyloid nucleation score does the source give for VYLHYLTREVSDYLMWWFRV here?
**A.** inactive

**Q.** With VYLKLSILFSCAFSN as the substance, how does the amyloid nucleation score read?
**A.** inactive

**Q.** With VYLRHWAIYVIESVLQGSCR as the substance, how does the amyloid nucleation score read?
**A.** inactive

**Q.** Which amyloid nucleation score does the source give for VYLRSISFVRTRQMVWCLLP here?
**A.** inactive

**Q.** Which amyloid nucleation score does the source give for VYRDFSGYFRLGWFDMSSVR here?
**A.** inactive

**Q.** With VYRNVHMFSRWQDFNPLGAR as the substance, how does the amyloid nucleation score read?
**A.** inactive

**Q.** Which amyloid nucleation score does the source give for VYTMVTMIDGIELFRWNLWS here?
**A.** inactive

**Q.** Which amyloid nucleation score does the source give for VYVCYIL here?
**A.** 1.73 ± 0.077

**Q.** For VYVLFRLCNNRFRKELIATL, which amyloid nucleation score is on record?
**A.** inactive

**Q.** With VYVRG as the substance, how does the amyloid nucleation score read?
**A.** inactive

**Q.** For VYYKVKEHVGWVFVSVVCIV, which amyloid nucleation score is on record?
**A.** inactive

**Q.** With WAKNHPDLIMLIFADTISYN as the substance, how does the amyloid nucleation score read?
**A.** 2.31 ± 0.058

**Q.** With WALTRLRAPPF as the substance, how does the amyloid nucleation score read?
**A.** inactive

**Q.** With WCAISICQLLKRQWYLGSYV as the substance, how does the amyloid nucleation score read?
**A.** inactive

**Q.** With WCARSTWKISIEY as the substance, how does the amyloid nucleation score read?
**A.** inactive

**Q.** For WCDYMKNPCSFEGKFLWRWP, which amyloid nucleation score is on record?
**A.** inactive

**Q.** For WCFGYLHMNIV, which amyloid nucleation score is on record?
**A.** inactive

**Q.** For WCFMQQFVFTLGRKFRIWRI, which amyloid nucleation score is on record?
**A.** inactive

**Q.** For WCGEKVCCRAQMSLTIKSLL, which amyloid nucleation score is on record?
**A.** inactive

**Q.** With WCHLFLFMCTSSLFSGWDDG as the substance, how does the amyloid nucleation score read?
**A.** inactive

**Q.** With WCLHNLVSMLRDQTSRVSFP as the substance, how does the amyloid nucleation score read?
**A.** inactive

**Q.** For WCQDATMYNPSYY, which amyloid nucleation score is on record?
**A.** inactive

**Q.** Which amyloid nucleation score does the source give for WDLLTKLHVKIKFLDRGMMS here?
**A.** inactive

**Q.** With WDSMMYNMVKDDSGLWNHVE as the substance, how does the amyloid nucleation score read?
**A.** inactive

**Q.** Which amyloid nucleation score does the source give for WDWWN here?
**A.** inactive

**Q.** Which amyloid nucleation score does the source give for WFFMNVLASENKYFVLCCKA here?
**A.** inactive

**Q.** With WFLVNRDWFLGCQVTGEVLI as the substance, how does the amyloid nucleation score read?
**A.** inactive

**Q.** With WFNLCYFG as the substance, how does the amyloid nucleation score read?
**A.** 2.5 ± 0.069

**Q.** Which amyloid nucleation score does the source give for WFPSKYIATMFCLQVFLVKP here?
**A.** inactive

**Q.** With WFVNL as the substance, how does the amyloid nucleation score read?
**A.** 1.38 ± 0.15

**Q.** Which amyloid nucleation score does the source give for WGCEIRANLLITSWVSVTVG here?
**A.** inactive

**Q.** Which amyloid nucleation score does the source give for WGLGFFAI here?
**A.** inactive

**Q.** Which amyloid nucleation score does the source give for WGLTMLRESRVCCKSYNKQG here?
**A.** inactive

**Q.** For WGNLCQSGALCCQEGC, which amyloid nucleation score is on record?
**A.** inactive

**Q.** With WGRISNAHG as the substance, how does the amyloid nucleation score read?
**A.** inactive

**Q.** For WGSEFIDTKFA, which amyloid nucleation score is on record?
**A.** inactive

**Q.** Which amyloid nucleation score does the source give for WGWMSTIKIVG here?
**A.** inactive

**Q.** For WHCLTVFILKYEVGFCSSLR, which amyloid nucleation score is on record?
**A.** inactive

**Q.** With WHSKKLRICHLGCFVQTDWV as the substance, how does the amyloid nucleation score read?
**A.** inactive

**Q.** With WHWCCDSNMMRVIFTWFFSL as the substance, how does the amyloid nucleation score read?
**A.** inactive

**Q.** For WIAVPRVGTWVGEKMS, which amyloid nucleation score is on record?
**A.** inactive

**Q.** For WIPAMVYFEHNTS, which amyloid nucleation score is on record?
**A.** inactive

**Q.** For WIRIVRELGRSVR, which amyloid nucleation score is on record?
**A.** inactive

**Q.** Which amyloid nucleation score does the source give for WISFFT here?
**A.** inactive

**Q.** With WKLGLK as the substance, how does the amyloid nucleation score read?
**A.** inactive

**Q.** With WKSPVYAYVWNSGPFRRQGK as the substance, how does the amyloid nucleation score read?
**A.** inactive

**Q.** With WKWVRRYVRATIRSYSKDLD as the substance, how does the amyloid nucleation score read?
**A.** inactive

**Q.** For WKYWIWVFMNATYMDCVGML, which amyloid nucleation score is on record?
**A.** inactive

**Q.** With WLFSTSI as the substance, how does the amyloid nucleation score read?
**A.** inactive

**Q.** Which amyloid nucleation score does the source give for WLHINGVLYIFSMAGSALSV here?
**A.** inactive

**Q.** Which amyloid nucleation score does the source give for WLIFELIVSELSTRHHKALD here?
**A.** inactive

**Q.** Which amyloid nucleation score does the source give for WLLTM here?
**A.** inactive

**Q.** For WLMIMDFKCLSPRTRSWRRM, which amyloid nucleation score is on record?
**A.** inactive

**Q.** With WLNVLNSYSDRSYLKETRLR as the substance, how does the amyloid nucleation score read?
**A.** inactive

**Q.** For WLRLIA, which amyloid nucleation score is on record?
**A.** inactive

**Q.** For WLVPR, which amyloid nucleation score is on record?
**A.** inactive

**Q.** Which amyloid nucleation score does the source give for WLWTLALNFTYKYFMCGKYK here?
**A.** inactive

**Q.** For WMFVRGDAGLRFVGG, which amyloid nucleation score is on record?
**A.** 1.05 ± 0.21

**Q.** Which amyloid nucleation score does the source give for WMMRD here?
**A.** inactive

**Q.** With WMNGISKL as the substance, how does the amyloid nucleation score read?
**A.** inactive

**Q.** Which amyloid nucleation score does the source give for WMYKTWHRI here?
**A.** inactive

**Q.** With WNMSVRRISYEDL as the substance, how does the amyloid nucleation score read?
**A.** inactive

**Q.** Which amyloid nucleation score does the source give for WPSGFCYR here?
**A.** inactive

**Q.** Which amyloid nucleation score does the source give for WQHSRSLDTSACCPT here?
**A.** inactive

**Q.** For WQQAYRDRTSRSYWQPICAT, which amyloid nucleation score is on record?
**A.** inactive

**Q.** Which amyloid nucleation score does the source give for WQTKIGYSGRLFDRTLGDAK here?
**A.** inactive

**Q.** Which amyloid nucleation score does the source give for WQWVM here?
**A.** inactive

**Q.** For WRVFVIRYKKSMYAETGKVK, which amyloid nucleation score is on record?
**A.** inactive

**Q.** With WRVLFSILSVTAVWATYAGL as the substance, how does the amyloid nucleation score read?
**A.** inactive

**Q.** Which amyloid nucleation score does the source give for WRVYVFNVLETYMLRVKWVG here?
**A.** inactive

**Q.** With WSFCGLYLNI as the substance, how does the amyloid nucleation score read?
**A.** 1.62 ± 0.095

**Q.** For WSILL, which amyloid nucleation score is on record?
**A.** inactive

**Q.** Which amyloid nucleation score does the source give for WSINAIGQTHINSEVLGVLF here?
**A.** inactive

**Q.** For WSISIGYFP, which amyloid nucleation score is on record?
**A.** inactive

**Q.** Which amyloid nucleation score does the source give for WSKVSHPYSALYSIMDRYT here?
**A.** inactive

**Q.** Which amyloid nucleation score does the source give for WSSVFESLQSLMIIFRRLAD here?
**A.** inactive

**Q.** With WSTLKMVRVCYGASFSNVYM as the substance, how does the amyloid nucleation score read?
**A.** inactive
